B1: Protein PTHB1 (Homo sapiens), Q3SYG4 (parent)
chain: MSLFKARDWWSTILGDKEEFDQGCLCLANVDNSGNGQDKIIVGSFMGYLRIFSPHPAKTGDGAQAEDLLLEVDLRDPVLQVEVGKFVSGTEMLHLAVLHSRKLCVYSVSGTLGNVEHGNQCQMKLMYEHNLQRTACNMTYGSFGGVKGRDLICIQSMDGMLMVFEQESYAFGRFLPGFLLPGPLAYSSRTDSFLTVSSCQQVESYKYQVLAFATDADKRQETEQQKLGSGKRLVVDWTLNIGEQALDICIVSFNQSASSVFVLGERNFFCLKDNGQIRFMKKLDWSPSCFLPYCSVSEGTINTLIGNHNNMLHIYQDVTLKWATQLPHIPVAVRVGCLHDLKGVIVTLSDDGHLQCSYLGTDPSLFQAPNVQSRELNYDELDVEMKELQKIIKDVNKSQGVWPMTEREDDLNVSVVVSPNFDSVSQATDVEVGTDLVPSVTVKVTLQNRVILQKAKLSVYVQPPLELTCDQFTFEFMTPDLTRTVSFSVYLKRSYTPSELEGNAVVSYSRPTDRNPDGIPRVIQCKFRLPLKLICLPGQPSKTASHKITIDTNKSPVSLLSLFPGFASQSDDDQVNVMGFHFLGGARITVLASKTSQRYRIQSEQFEDLWLITNELILRLQEYFEKQGVKDFACSFSGSIPLQEYFELIDHHFELRINGEKLEELLSERAVQFRAIQRRLLARFKDKTPAPLQHLDTLLDGTYKQVIALADAVEENQGNLFQSFTRLKSATHLVILLIALWQKLSADQVAILEAAFLPLQEDTQELGWEETVDAAISHLLKTCLSKSSKEQALNLNSQLNIPKDTSQLKKHITLLCDRLSKGGRLCLSTDAAAPQTMVMPGGCTTIPESDLEERSVEQDSTELFTNHRHLTAETPRPEVSPLQGVSE
partner: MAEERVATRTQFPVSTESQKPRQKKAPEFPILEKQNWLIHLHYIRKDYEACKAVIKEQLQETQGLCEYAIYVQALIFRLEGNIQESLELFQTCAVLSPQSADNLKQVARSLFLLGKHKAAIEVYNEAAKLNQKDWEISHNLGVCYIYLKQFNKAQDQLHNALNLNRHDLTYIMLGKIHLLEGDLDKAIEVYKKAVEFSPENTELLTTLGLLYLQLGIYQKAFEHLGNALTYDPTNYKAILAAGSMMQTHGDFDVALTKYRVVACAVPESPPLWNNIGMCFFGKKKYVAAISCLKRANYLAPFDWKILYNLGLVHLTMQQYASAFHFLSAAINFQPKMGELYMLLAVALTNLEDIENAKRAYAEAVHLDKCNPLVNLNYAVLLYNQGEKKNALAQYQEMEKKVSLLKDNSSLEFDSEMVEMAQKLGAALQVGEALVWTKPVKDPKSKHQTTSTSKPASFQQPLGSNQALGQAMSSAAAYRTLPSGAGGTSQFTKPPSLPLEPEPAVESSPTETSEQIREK

Variants of: B1
Settings: with bbs4_human BBS4, Q96RK4

Variant | effect of a mutation on the interaction
S603A | with no effect
S603E | with no effect
S603K | with no effect
S603N | disrupting interaction strength
E604A | with no effect
E604K | with no effect
Q605A | with no effect
Q605E | with no effect
Q605K | with no effect
F606A | with no effect
F606E | with no effect
F606K | with no effect
E607A | with no effect
E607K | with no effect
D608A | with no effect
D608E | with no effect
D608K | with no effect
L609A | with no effect
L609E | with no effect
L609K | with no effect
W610A | with no effect
W610E | with no effect
W610K | with no effect

Variant | effect of a mutation on the interaction
L611A | with no effect
L611C | disrupting interaction strength
L611E | with no effect
L611F | disrupting interaction strength
L611K | with no effect
I612A | with no effect
I612E | with no effect
I612K | with no effect
T613A | with no effect
T613E | with no effect
T613I | disrupting interaction strength
T613K | with no effect
N614A | with no effect
N614E | with no effect
N614K | with no effect
E615A | with no effect
E615K | with no effect
L616A | with no effect
L616E | with no effect
L616K | with no effect
L616P | disrupting interaction strength
I617A | with no effect
I617E | with no effect

Variant | effect of a mutation on the interaction
I617K | with no effect
I617T | disrupting interaction strength
L618A | with no effect
L618E | with no effect
L618K | with no effect
R619A | with no effect
R619E | with no effect
R619K | with no effect
L620A | with no effect
L620E | with no effect
L620K | with no effect
L620P | disrupting interaction strength
Q621A | with no effect
Q621E | with no effect
Q621K | with no effect
E622A | with no effect
E622K | with no effect
Y623A | with no effect
Y623E | with no effect
Y623K | with no effect
F624A | with no effect
F624E | with no effect
F624K | with no effect

Variant | effect of a mutation on the interaction
E625A | with no effect
E625K | with no effect
K626A | with no effect
K626E | with no effect
Q627A | with no effect
Q627E | with no effect
Q627K | with no effect
G628A | with no effect
G628E | with no effect
G628K | with no effect
V629A | with no effect
V629E | with no effect
V629I | disrupting interaction strength
V629K | with no effect
K630A | with no effect
K630E | with no effect
D631A | with no effect
D631E | with no effect
D631K | with no effect
F632A | with no effect
F632E | with no effect
F632K | with no effect
A633E | with no effect

Variant | effect of a mutation on the interaction
A633K | with no effect
C634A | with no effect
C634E | with no effect
C634K | with no effect
S635A | with no effect
S635E | with no effect
S635K | with no effect
F636A | with no effect
F636E | with no effect
F636K | with no effect
S637A | with no effect
S637E | with no effect
S637K | with no effect
G638A | with no effect
G638E | with no effect
G638K | with no effect
S639A | with no effect
S639E | with no effect
S639K | with no effect
I640A | with no effect
I640E | with no effect
I640K | with no effect
P641A | with no effect

Variant | effect of a mutation on the interaction
P641E | with no effect
P641K | with no effect
L642A | with no effect
L642E | with no effect
L642K | with no effect
Q643A | with no effect
Q643E | with no effect
Q643K | with no effect
E644A | with no effect
E644K | with no effect
Y645A | with no effect
Y645E | with no effect
Y645K | with no effect
F646A | with no effect
F646E | with no effect
F646K | with no effect
E647A | with no effect
E647G | disrupting interaction strength
E647K | disrupting interaction strength
L648A | with no effect
L648E | with no effect
L648K | with no effect
I649A | with no effect

Variant | effect of a mutation on the interaction
I649E | with no effect
I649K | with no effect
D650A | with no effect
D650E | with no effect
D650K | with no effect
H651A | with no effect
H651E | with no effect
H651K | with no effect
H652A | with no effect
H652E | with no effect
H652K | with no effect
F653A | with no effect
F653E | with no effect
F653K | with no effect
E654A | disrupting interaction strength
E654K | disrupting interaction strength
L655A | with no effect
L655E | with no effect
L655K | with no effect
R656A | with no effect
R656E | with no effect
R656K | with no effect
I657A | with no effect

Variant | effect of a mutation on the interaction
I657E | with no effect
I657K | with no effect
N658A | with no effect
N658E | with no effect
N658K | with no effect
G659A | with no effect
G659D | disrupting interaction strength
G659E | with no effect
G659K | with no effect
E660A | with no effect
E660K | with no effect
K661A | with no effect
K661E | with no effect
L662A | with no effect
L662E | with no effect
L662K | with no effect
E663A | with no effect
E663K | with no effect
E664A | with no effect
E664K | with no effect
